# From patent US6290951A, “Alteration of the cell cycle in vivo, and particularly for inducing apoptosis of tumor cells” (Alfacell Corporation, priority 1998, dated 2001)
# Square brackets hold non-standard residues; d marks the D form. Peptide text beside a SMILES is read from it. Nle = CCCC[C@H](N)C(=O)O
# B1: ranpirnase: USAN generic name of the pharmaceutical described in U.S. Pat. No. 5,559,212, known by the registered trademark ONCONASE (protein, UniProt P22069 1-104, looked up)
# Protein P-30: QDWLTFQKKHITNTRDVDCDNIMSTNLFHCKDKNTFIYSRPEPVKAICKGIIASKNVLTTSEFYLSDCNVTSRPCKYKLKKSTNKFCVTCENQAPVHFVGVGSC
# Key:
# [1] = tested on: proteasome; details: Proc Natl Acad Sci USA 94:855-860, 1997; cited from earlier work
# [2] = tested on: MDA-MB-231 human breast carcinoma; assay: MTT assay, MDA-MB-231 cells
# [3] = tested on: HL-60 tumor cells; details: proliferating HL-60 tumor cells; background art; cited from earlier work
# [4] = tested on: DU-145 human prostate carcinoma; assay: MTT assay, DU-145 cells
# [5] = tested on: A-549 human lung carcinoma; assay: MTT assay, A-549 cells
# [6] = A-549 cells, 10 μM LLnL with 0.1 to 1.0 μg/mL ranpirnase
molecule,measurement,setting,value
"CSCC[C@@H](C=O)NC(=O)[C@H](CC(C)C)NC(=O)[C@H](CC(C)C)NC(C)=O [LLM, N-acetyl-leucinyl-leucinyl-methioninal, reference compound] (Ac-Leu-Leu-Met-aldehyde)",inhibition of the activity of proteasome,[1],does not significantly inhibit
same,effect on growth and viability versus untreated controls,"[2]; MDA-MB-231 cells, 25 μM LLM alone",no significant effect
"CCCC[C@@H](C=O)NC(=O)[C@H](CC(C)C)NC(=O)[C@H](CC(C)C)NC(C)=O [LLnL, N-acetyl-leucinyl-leucinyl-norleucinal] (Ac-Leu-Leu-[Nle]-aldehyde)",cell cycle arrest,[3],arrested the HL-60 cells in the G1 phase
"CC(=O)N[C@@H](CC(=O)O)C(=O)N[C@@H](CCC(=O)O)C(=O)N[C@H](C(=O)N[C@H](C=O)CC(=O)O)C(C)C [Ac-DEVD-cho, N-acetyl-L-aspartyl-L-glutamyl-L-valinyl-L-aspartal, reference compound]",increase of viability of cells versus LLnL alone,"[4]; DU-145 cells treated with LLnL, without ranpirnase, Ac-DEVD-cho 50 μpM",approximately 4 fold
same,increase of viability of cells,"[4]; DU-145 cells treated with ranpirnase and 25 μpM LLnL, Ac-DEVD-cho 50 μpM",2- to 3 fold
"CC(=O)N[C@@H](CC(C)C)C(=O)N[C@H](C(=O)N[C@H](C=O)Cc1ccccc1)C(C)C [LVP, N-acetyl-leucinyl-valinyl-phenylalaninal, reference compound]",augmentation of the anti-tumor activity of ranpirnase,"[5]; A-549 cell line, peptide aldehyde added to ranpirnase",augmented
same,augmentation of the anti-tumor activity of ranpirnase,"[4]; DU-145 cell line, peptide aldehyde added to ranpirnase",augmented
"COc1cccc2c1C(=O)c1c(O)c3c(c(O)c1C2=O)C[C@@](O)(C(=O)CO)C[C@@H]3O[C@H]1C[C@H](N)[C@H](O)[C@H](C)O1 [doxorubicin, reference compound]",effect of adding doxorubicin on cell growth or cell viability,"[2]; MDA-MB-231 cells, ranpirnase plus 0.1 μg/mL doxorubicin plus 15 μM LLnL versus ranpirnase plus LLnL",did not significantly decrease
B1,interaction of ranpirnase and LLnL,[5]; A-549 cell line,synergistically
same,anti-tumor activity of ranpirnase combined with LLnL versus each single agent (Newman-Keuls),[5]; A-549 cells,significantly greater
same,effect of the combination versus ranpirnase alone,[5]; [6],greater than the effect of ranpirnase alone
same,interaction of ranpirnase and LLnL,[5]; [6],not synergistic
same,interaction of ranpirnase and LLnL,"[5]; A-549 cells, higher concentrations (15 to 35) μM of LLnL",synergistic
same,mean ED50 value for ranpirnase,"[5]; A-549 cells, in combination with 10 μM LLnL",1.356 µg/mL
same,mean ED50 value for ranpirnase,"[5]; A-549 cells, in combination with 15 μM LLnL",0.640 µg/mL
same,mean ED50 value for ranpirnase,"[5]; A-549 cells, in combination with 25 μM LLnL",0.060 µg/mL
same,mean ED50 value for ranpirnase,"[5]; A-549 cells, in combination with 35 μM LLnL",less than 0.001 μg/mL
same,mean ED50 value for ranpirnase,"[5]; A-549 cells, ranpirnase alone",3.944 µg/mL
same,interaction of ranpirnase and LLnL,[4]; DU-145 cell line,synergistically
same,anti-tumor activity of ranpirnase combined with LLnL versus each single agent (Newman-Keuls),[4]; DU-145 cells,significantly greater
same,interaction of ranpirnase with LLnL,"[4]; DU-145 cells, all concentrations of ranpirnase, 10 to 25 μM LLnL",synergistic
same,ED50 value for ranpirnase,"[4]; DU-145 cells, combined with 10 μM LLnL",1.231 µg/mL
same,ED50 value for ranpirnase,"[4]; DU-145 cells, combined with 15 μM LLnL",0.001 µg/mL
same,ED50 value for ranpirnase,"[4]; DU-145 cells, combined with 25 μM LLnL",< 0.001 µg/mL
same,ED50 value for ranpirnase,"[4]; DU-145 cells, ranpirnase alone",42.276 µg/mL
same,interaction of ranpirnase and LLnL,[2]; MDA-MB-231 cell line,synergistically
same,anti-tumor activity of ranpirnase combined with LLnL versus each single agent (Newman-Keuls),[2]; MDA-MB-231 cells,significantly greater
same,activity of combination of ranpirnase and LLM versus ranpirnase alone,"[2]; MDA-MB-231 cells, 25 μM LLM",no significant difference
same,decrease of mean ED50 value for ranpirnase,"[2]; MDA-MB-231 cells, additional treatment with 25 μM LLM",approximately two-fold
same,decrease of mean ED50 value for ranpirnase versus ranpirnase alone,"[2]; MDA-MB-231 cells, in combination with 0.1 μg/mL (approximately 0.17 μM) doxorubicin",2.2 fold
same,mean ED50 value for ranpirnase,"[2]; MDA-MB-231 cells, in combination with 10 μM LLnL",0.037 µg/mL
same,mean ED50 value for ranpirnase,"[2]; MDA-MB-231 cells, in combination with 15 μM LLnL",0.022 µg/mL
same,mean ED50 value for ranpirnase,"[2]; MDA-MB-231 cells, in combination with 25 μM LLnL",0.001 µg/mL
same,interaction of ranpirnase with LLnL,"[2]; MDA-MB-231 cells, ranpirnase 0.1 to 10.0 μg/mL, LLnL 5 to 25 μM (particularly 10 to 25 μM)",synergistically
same,mean ED50 value for ranpirnase,"[2]; MDA-MB-231 cells, ranpirnase alone",1.434 µg/mL
